In series [1] the target is T1, DNA ligase IV catalytic domain (lysyl-AMP at K273 in open complex) (human, UniProt P49917 1-620).
T1 sequence: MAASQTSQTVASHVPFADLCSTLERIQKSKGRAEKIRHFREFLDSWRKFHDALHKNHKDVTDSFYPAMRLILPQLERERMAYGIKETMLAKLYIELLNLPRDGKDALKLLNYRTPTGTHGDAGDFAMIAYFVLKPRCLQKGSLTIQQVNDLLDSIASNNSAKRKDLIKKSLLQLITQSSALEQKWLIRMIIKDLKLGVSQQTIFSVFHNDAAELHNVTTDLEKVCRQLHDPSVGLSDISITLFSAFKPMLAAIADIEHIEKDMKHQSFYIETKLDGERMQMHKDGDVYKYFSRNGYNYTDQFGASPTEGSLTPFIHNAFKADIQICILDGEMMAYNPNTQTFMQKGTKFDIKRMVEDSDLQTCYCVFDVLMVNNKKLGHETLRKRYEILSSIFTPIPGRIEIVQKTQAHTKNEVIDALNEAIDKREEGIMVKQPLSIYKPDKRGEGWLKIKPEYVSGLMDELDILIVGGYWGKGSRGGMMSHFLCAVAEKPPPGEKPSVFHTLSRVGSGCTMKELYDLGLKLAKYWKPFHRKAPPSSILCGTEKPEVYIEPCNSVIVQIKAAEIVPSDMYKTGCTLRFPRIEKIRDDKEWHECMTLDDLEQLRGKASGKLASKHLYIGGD
The experiment in a line: X-ray crystallography; DNA-adenylate, closed conformation, no metal bound; Crystals: protein pre-incubated with 4 mM MgCl2, 1 mM ATP, 1 h on ice, DNA added at 2:1 molar ratio, 1 h on ice; HEPES pH 7.5 (77-79 mM), ~7.8% isopropanol, ~15.5% PEG4000, ~13.6% glycerol, +/- 10 mM MgCl2, room temperature. Mutants only tested by ligation turnover (no binding read-out). As to conditions: protein: recombinant; tags: 6xHis-SUMO, removed with Ulp1; nicked duplex, 18 bp, blunt ends; nick between strand 2 (11 nt) and strand 3 (7 nt).

The target of series [2] is T1, DNA ligase IV catalytic domain …. The experiment in a line: X-ray crystallography; lysyl-AMP (K273), open conformation, 10 mM MgCl2; 3.25 A; Crystals: protein pre-incubated with 4 mM MgCl2, 1 mM ATP, 1 h on ice, DNA added at 2:1 molar ratio, 1 h on ice; HEPES pH 7.5 (77-79 mM), ~7.8% isopropanol, ~15.5% PEG4000, ~13.6% glycerol, +/- 10 mM MgCl2, room temperature. Mutants only tested by ligation turnover (no binding read-out). As to conditions: protein: recombinant; tags: 6xHis-SUMO, removed with Ulp1; nicked duplex, 18 bp, blunt ends; nick between strand 2 (11 nt) and strand 3 (7 nt).

B1: nicked DNA-adenylate duplex (crystal), 5'-AMP downstream primer (dsDNA)
DNA 1: GTCCGACGACGCATCAGC
DNA 2: GCTGATGCGTC
DNA 3: GTCGGAC
modifications: upstream primer 3'-dideoxycytidine; downstream primer 5'-adenylated (AMP-p, transferred from K273 in the complex)
Consider B1, for which the binding result in series [1] was “binds”.

B2: nicked DNA duplex (crystal), 5'-phosphate downstream primer (dsDNA)
DNA 1: GTCCGACGACGCATCAGC
DNA 2: GCTGATGCGTC
DNA 3: GTCGGAC
modifications: upstream primer 3'-dideoxycytidine; downstream primer 5'-phosphate
For B2, the binding result in series [2] is “binds”.

The record behind these values is article PMC6035275, “Structures of DNA-bound human ligase IV catalytic core reveal insights into substrate binding and catalysis”.
